Data as given in the Human Domainome abundance scans (Beltran et al. 2025).
± gives the uncertainty stated by the source.

B1: Far upstream element-binding protein 2, residues 142 to 214; numbered along this chain, Q92945 (parent)
chain: RTSMTEEYRVPDGMVGLIIGRGGEQINKIQQDSGCKVQISPDSGGLPERSVSLTGAPESVQKAKMMLDDIVSR

Variants of: B1
Test: abundance fitness (aPCA) (normalised: wild type 0, dead -1); higher = more abundant; growth selection in yeast, the domain comes from the species named
Conditions: Homo sapiens

Point of comparison: D12F, abundance fitness -0.153 ± 0.075. Against it:
- D32G — within error, -0.156 ± 0.044
- D32M — higher, 0.019 ± 0.066
- D32C — within error, -0.141 ± 0.082
- D32K — within error, -0.043 ± 0.084
- D32Q — higher, 0.025 ± 0.06
- A63G — lower, -0.447 ± 0.044
- A63W — lower, -1.55 ± 0.2
- A63H — lower, -0.528 ± 0.21
- G16W — within error, -0.229 ± 0.056
- G16S — within error, -0.076 ± 0.043
- G16N — within error, -0.093 ± 0.089
- E7C — within error, -0.178 ± 0.051
- M65F — within error, -0.136 ± 0.089
- M65Q — higher, 0.131 ± 0.052
- A56G — within error, -0.114 ± 0.041
- A56Y — within error, -0.091 ± 0.095
- A56W — within error, -0.281 ± 0.057
- I18E — lower, -0.287 ± 0.054
- S59P — lower, -0.769 ± 0.058
- S59Q — within error, -0.037 ± 0.051
- S59M — within error, -0.206 ± 0.054
- K36D — higher, 0.021 ± 0.067
- K36W — lower, -0.283 ± 0.051
- K36Q — within error, -0.034 ± 0.059
- T2M — higher, 0.104 ± 0.053
- T2H — within error, -0.138 ± 0.088
- T2K — higher, -0.007 ± 0.065
- T2A — within error, -0.13 ± 0.045
- R9S — higher, -0.024 ± 0.042
- R9F — higher, 0.068 ± 0.068
- L53R — lower, -0.854 ± 0.048
- L53V — lower, -0.369 ± 0.047
- L53H — lower, -0.733 ± 0.12
- L53E — lower, -0.869 ± 0.063
- V10C — within error, -0.137 ± 0.057
- V10S — lower, -0.628 ± 0.047
- V10P — lower, -0.456 ± 0.059
- S72T — within error, -0.042 ± 0.052
- S72Y — within error, -0.079 ± 0.074
- K28F — lower, -0.4 ± 0.11
- K28A — within error, -0.144 ± 0.048
- K28W — lower, -0.51 ± 0.051
- K28G — lower, -0.507 ± 0.039
- I70V — within error, -0.059 ± 0.045
- I70D — lower, -0.574 ± 0.073
- I70S — lower, -0.504 ± 0.051
- I70P — lower, -0.555 ± 0.06
- V60W — lower, -1.26 ± 0.089
- V60H — lower, -0.727 ± 0.11
- V60C — lower, -0.355 ± 0.079
- V60E — lower, -0.773 ± 0.068
- M4F — higher, 0.02 ± 0.087
- M4H — within error, -0.107 ± 0.065
- M4I — within error, -0.096 ± 0.11
- E24K — within error, -0.078 ± 0.058
- E24H — within error, -0.019 ± 0.09
- L67Y — lower, -0.84 ± 0.12
- L67Q — lower, -0.64 ± 0.064
- L67W — lower, -1.06 ± 0.063
- K62D — lower, -0.663 ± 0.076
- K62T — within error, -0.204 ± 0.05
- K62F — lower, -0.625 ± 0.098
- K62Q — within error, -0.048 ± 0.052
- E58A — within error, -0.088 ± 0.05
- E58H — within error, -0.071 ± 0.087
- E58W — lower, -0.335 ± 0.053
- L46V — within error, -0.104 ± 0.042
- L46T — higher, -0.002 ± 0.05
- L46K — higher, 0.061 ± 0.063
- I39V — within error, -0.045 ± 0.046
- I39P — lower, -0.477 ± 0.052
- I39C — within error, -0.172 ± 0.075
- I39F — within error, -0.177 ± 0.09
- G44F — within error, -0.194 ± 0.096
- P11Y — lower, -0.712 ± 0.11
- R49A — within error, -0.021 ± 0.057
- G20V — lower, -1.38 ± 0.076
- G20D — within error, -0.086 ± 0.065
- G20Q — lower, -0.4 ± 0.061
- G20C — lower, -1.28 ± 0.11
- C35E — lower, -0.563 ± 0.054
- C35F — lower, -1.15 ± 0.18
- G55H — lower, -0.887 ± 0.12
- M66F — lower, -0.383 ± 0.1
- M66S — lower, -0.428 ± 0.05
- M66D — lower, -0.529 ± 0.072
- M66P — lower, -0.532 ± 0.054
- I19P — lower, -0.35 ± 0.051
- I19Y — higher, 0.005 ± 0.081
- I19H — within error, -0.17 ± 0.073
- S33Y — lower, -0.55 ± 0.097
- S33N — lower, -0.897 ± 0.15
- Y8F — within error, -0.116 ± 0.073
- Y8P — lower, -0.342 ± 0.056
- I26N — lower, -0.852 ± 0.17
- V51H — lower, -1.3 ± 0.23
- S43T — higher, -0.012 ± 0.048
- S40M — within error, -0.024 ± 0.068
- S40R — higher, -0.029 ± 0.037
- S40V — higher, 0.025 ± 0.044
- S40E — higher, -0.013 ± 0.047
- S40G — within error, -0.042 ± 0.037
- D12T — higher, 0.105 ± 0.059
- D12C — within error, -0.175 ± 0.071
- D12V — within error, -0.097 ± 0.046
- R21F — within error, -0.146 ± 0.065
- R21C — higher, -0.012 ± 0.055
- R21L — higher, 0.042 ± 0.037
- R21Y — within error, -0.148 ± 0.06
- Q61G — within error, -0.053 ± 0.044
- Q61I — within error, -0.064 ± 0.095
- Q61K — higher, 0.045 ± 0.062
- G23K — within error, -0.177 ± 0.068
- G45D — within error, -0.102 ± 0.07
- G45H — within error, -0.011 ± 0.095
- G45W — lower, -0.351 ± 0.056
- Q38C — within error, -0.019 ± 0.065
- Q38E — higher, 0.129 ± 0.054
- G13T — higher, 0.035 ± 0.046
- G34D — within error, -0.274 ± 0.082
- G34Y — lower, -0.998 ± 0.15
- K64Y — lower, -0.926 ± 0.12
- K64R — higher, -0.016 ± 0.037
- K64C — lower, -0.554 ± 0.069
- Q30S — within error, -0.078 ± 0.047
- Q30G — within error, -0.24 ± 0.038
- Q30A — within error, -0.067 ± 0.042
- Q30T — within error, -0.17 ± 0.053
- Q30L — within error, -0.241 ± 0.049
- P47Y — within error, -0.028 ± 0.09
- P47Q — within error, -0.034 ± 0.06
- P47A — higher, 0.02 ± 0.048
- P47M — within error, -0.009 ± 0.07
- P47F — within error, -0.14 ± 0.081
- P47L — within error, -0.094 ± 0.046
- I29A — lower, -0.811 ± 0.053
- E6T — higher, 0.125 ± 0.048
- D68I — lower, -0.494 ± 0.077
- D68H — within error, -0.241 ± 0.068
- Q31F — within error, -0.105 ± 0.096
- R1W — within error, -0.143 ± 0.054
- R1D — higher, 0.017 ± 0.079
- R1N — higher, 0.101 ± 0.081
- R1E — higher, 0.075 ± 0.065
- R1S — within error, -0.072 ± 0.053
- D42P — higher, -0.006 ± 0.051
- D42A — higher, -0.013 ± 0.049
- S3Y — higher, 0.125 ± 0.073
- S3T — higher, 0.213 ± 0.045
- S3C — higher, 0.152 ± 0.055
- T54Y — higher, 0.028 ± 0.092
- V37Y — lower, -0.974 ± 0.15
- V37D — lower, -0.597 ± 0.081
- V37T — lower, -0.484 ± 0.069
- V37E — lower, -0.704 ± 0.064
- S50E — within error, -0.193 ± 0.059
- S50P — within error, -0.159 ± 0.055
- S50D — within error, -0.289 ± 0.074
- Q25F — within error, -0.181 ± 0.13
- Q25W — within error, -0.17 ± 0.076
- E48Y — higher, 0.103 ± 0.079
- E48M — within error, -0.047 ± 0.057
- S52P — lower, -0.874 ± 0.065
- S52I — within error, 0 ± 0.083
- S52E — higher, 0 ± 0.048
- R73T — higher, 0.124 ± 0.063
